Read-outs that look alike come from different tables or passages of the source.

This note sets out measurements from patent publication US20040018971A1 (published 2004).

For assay [1], the target named is T1, HLA-A*0201 (human).
T1 construct: the construct is not described; also called HLA-A2.1
Put plainly: inhibition of 125I-labeled probe peptide binding to purified HLA, gel filtration; relative to standard peptide. In general terms: In gel filtration, larger molecules generally elute earlier.

The target in assay [2] is T2, HLA-DRB1*0301 (human).
T2 construct: purified MHC class II molecule; also called DR3
Briefly: competition with 125I-labelled standard peptide, purified HLA-DR, gel filtration.

Assay [3] has as its target T3, HLA-DRB1*0301 (human).
T3 construct: also called DR3
Briefly: competition with 125I-labeled standard peptide, purified HLA-DR, gel filtration.

Assay [4] addresses HLA-A*0301 (human). Put plainly: competition with 125I-labelled standard peptide for purified HLA; gel filtration.
The target in assay [5] is HLA-A*3101 (human). The assay is described as above.
In assay [6] the target is HLA-A*3301 (human). The assay is described as above.
Assay [7] deals with HLA-A*6801 (human). The description is as above.
Assay [8] addresses T4, HLA-A*0301 (human).
T4 construct: also called HLA-A3
Put plainly: inhibition of 125I-labelled probe peptide binding to purified HLA-A*0301, gel filtration; ratio to standard peptide 941.12 [..] (11 nM); the negative sign is not explained.

The target of assay [9] is T5, HLA-DRB1*0101 (human).
T5 construct: also called DR1
Put plainly: competition with 125I probe peptide, purified HLA.

Assay [10] deals with T6, HLA-DRB1*0701 (human).
T6 construct: also called DR7
Briefly: competition with 125I probe peptide, purified HLA.

The target of assay [11] is T7, HLA-A*0201 (human).
T7 construct: also called HLA-A2.1
Briefly: competition for purified HLA vs 125I-labelled probe peptide, gel filtration.

Assay [12] has as its target T8, HLA-A*0202 (human).
T8 construct: purified HLA class I molecule
The assay is described as above.

The target of assay [13] is T9, HLA-A*0203 (human).
T9 construct: purified HLA class I molecule
Described as above.

The target in assay [14] is T10, HLA-A*0206 (human).
T10 construct: purified HLA class I molecule
The assay is described as above.

For assay [15], the target named is T11, HLA-A*6802 (human).
T11 construct: purified HLA class I molecule
The assay is described as above.

Assay [16] has as its target T12, HLA-DRB1*0101 (human).
T12 construct: purified MHC class II molecule; also called DR1
Briefly: competition with 125I-labelled standard peptide, purified HLA-DR, gel filtration.

Assay [17] has as its target T13, HLA-DRB1*0401 (human).
T13 construct: purified MHC class II molecule; also called DR4w4
Described as above.

The target of assay [18] is T14, HLA-DRB1*0802 (human).
T14 construct: purified MHC class II molecule; also called DR8w2
The description is as above.

In assay [19] the target is T15, HLA-DRB1*1302 (human).
T15 construct: purified MHC class II molecule; also called DR6w19
Described as above.

For assay [20], the target named is T16, HLA-DRB1*1501 (human).
T16 construct: purified MHC class II molecule; also called DR2w2β1
The description is as above.

Assay [21] has as its target T17, HLA-DRB5*0101 (human).
T17 construct: purified MHC class II molecule; also called DR2w2β2
Described as above.

Assay [22] deals with T2, HLA-DRB1*0301. Described as above. This is another data set of the same source.
In assay [23] the target is T18, HLA-DRB1*0401 (human).
T18 construct: also called DR4w4
Briefly: competition with 125I probe peptide, purified HLA.

Assay [24] has as its target T19, HLA-DR1 (DRB1*0101) (human).
T19 construct: purified HLA class II molecule
Briefly: competition binding assay, purified HLA, 125I-labelled probe peptide, gel filtration.

Assay [25] has as its target T20, HLA-DR4w4 (DRB1*0401) (human).
T20 construct: purified HLA class II molecule
The description is as above.

The target in assay [26] is T21, HLA-DR7 (DRB1*0701) (human).
T21 construct: purified HLA class II molecule
Described as above.

In assay [27] the target is T22, HLA-DRB1*0101 (human).
T22 construct: Purified HLA molecule; also called DR1
Briefly: inhibition of 125I probe peptide binding to purified HLA-DR, gel filtration.

Assay [28] addresses T22, HLA-DRB1*0101. The assay is described as above. This is another data set of the same source.
The target in assay [29] is T23, HLA-DRB1*0401 (human).
T23 construct: Purified HLA molecule; also called DR4w4
Described as above.

In assay [30] the target is T24, HLA-DRB1*1501 (human).
T24 construct: Purified HLA molecule; also called DR2w2β1
The description is as above.

The target in assay [31] is T25, HLA-DRB5*0101 (human).
T25 construct: Purified HLA molecule; also called DR2w2β2
The assay is described as above.

The target in assay [32] is T26, HLA-DRB1*1302 (human).
T26 construct: Purified HLA molecule; also called DR6w19
Described as above.

In assay [33] the target is T27, HLA-DRB1*0802 (human).
T27 construct: Purified HLA molecule; also called DR8w2
The assay is described as above.

Assay [34] has as its target T28, HLA-DRB1*0701 (human).
T28 construct: Purified HLA molecule; also called DR7
Described as above.

The target of assay [35] is HLA-A*1101 (human). Briefly: competition with 125I-labelled standard peptide for purified HLA; gel filtration.

B1: HER2/neu peptide, position 781, 10 amino acids (peptide)
peptide: YVSRLLGICL
notes: Synthetic peptide
As for B1, the relative binding ratio in assay [1] was 0.0004 ratio (IC50 of standard peptide / IC50 of test peptide).

B2: Her2/neu.70 (peptide)
peptide: SLSFLQDIQEVQGYV
For the molecule B2, the IC50 in assay [2] came out at 5770 nM. That is a single-digit micromolar value.

B3: HER2/neu DR supermotif exemplary peptide PSGVKPDLSYMPIWK (position 601) (peptide)
peptide: PSGVKPDLSYMPIWK
notes: synthetic 15-mer; also called Her2/neu.601
As to B3, the relative binding ratio in [3] was -0.0027 ratio (standard IC50 / test IC50).

B4: Her2/neu.852.R9 (peptide)
peptide: LVKSPNHVR
Regarding B4, the IC50 in assay [4] was 7860 nM; in assay [5], 198 nM; in [6] it was 107 nM; in assay [7], 50 nM.

B5: HER2/neu peptide, position 1173, 10 amino acids (peptide)
peptide: LSPGKNGVVK
notes: Synthetic peptide; also called Her2/neu.1173 (10-mer)
B5: the “relative binding ratio (IC50 of standard peptide / IC50 of test peptide)” value in assay [8] was -0.0002.

B6: Her2/neu.105 (peptide)
peptide: TQLFEDNYALAVLDN
As to B6, the values for the IC50 in assay [9] and in assay [10] were 94 nM and 1560 nM, respectively.

B7: Her2/neu.153.V9 (peptide)
peptide: VLIQRNPQV
notes: analog of Her2/neu.153
Consider B7, for which the IC50 came to 55 nM in [11], 768 nM in assay [12], 135 nM in assay [13] and 385 nM in assay [14].

B8: Her2/neu.369.T2V9 (peptide)
peptide: KTFGSLAFV
notes: analog of Her2/neu.369
As to B8, the IC50 in [11] amounted to 35 nM; in assay [12], 13 nM; in assay [13], 1010 nM; in assay [15] it was 17 nM.

B9: Her2/neu.952.L2V10 (peptide)
peptide: YLIMVKCWMV
notes: analog of Her2/neu.952 (10-mer)
As to B9, the IC50 in assay [11] was 13 nM; in assay [12], 56 nM; in assay [14] it was 18 nM; in assay [15] it was 84 nM.

B10: Her2/neu.769 (peptide)
peptide: DEAYVMAGVGSPYVS
On to B10, for which the IC50 in [16] amounted to 100 nM; in assay [17], 196 nM; in [18], 860 nM; in assay [19], 1750 nM; in assay [20], 3140 nM; in assay [21], 833 nM.

B11: Her2/neu.867 (peptide)
peptide: ARLLDIDETEYHADG
As for B11, the IC50 in [2] and in assay [22] was 968 nM in each case.

B12: HER2/neu peptide, position 1162, 10 amino acids (peptide)
peptide: PAGATLERPK
notes: Synthetic peptide; also called Her2/neu.1162 (10-mer)
Consider B12, for which, in assay [8], the “relative binding ratio (IC50 of standard peptide / IC50 of test peptide)” value is -0.0002.

B13: Her2/neu.653.L2V9 (peptide)
peptide: SLISAVVGV
notes: analog of Her2/neu.653
As to B13, the IC50 in assay [11] is 7.1 nM; in assay [12] it was 10 nM; in [13] it was 16 nM; in assay [14], 20 nM; in assay [15], 110 nM.

B14: Her2/neu.1028 (peptide)
peptide: QGFFCPDPAPGAGGM
In assay [23], B14 yielded an IC50 of 1960 nM.

B15: HER2/neu peptide, position 83, 9 amino acids (peptide)
peptide: YVLIAHNQV
notes: Synthetic peptide
For the molecule B15, the relative binding ratio in [1] was 0.0005 ratio (IC50 of standard peptide / IC50 of test peptide).

B16: HER2/neu peptide QGFFCPDPAPGAGGM (position 1028) (peptide)
peptide: QGFFCPDPAPGAGGM
notes: also called Her2/neu.1028
As to B16, the relative binding ratio is -0.0005 ratio to standard peptide in assay [24], 0.023 ratio to standard peptide in assay [25] and -0.0011 ratio to standard peptide in [26].

B17: Her2/neu.1142 (peptide)
peptide: QPDVRPQPPSPREGP
notes: Synthetic peptide
In the case of B17, the IC50 in [27] worked out at 7140 nM.

B18: Her2/neu.769 (peptide)
peptide: DEAYVMAGVGSPYVS
notes: Synthetic peptide
As for B18, the IC50 was determined as 100 nM in assay [28]; 196 nM in [29]; 3140 nM in [30]; 833 nM in assay [31]; 1750 nM in assay [32]; 860 nM in assay [33].

B19: Her2/neu.1005 (peptide)
peptide: YRSLLEDDDMGDLVD
In turn, B19 registered an IC50 in [2] of 4760 nM. This lies in the single-digit micromolar range.

B20: Her2/neu.943 (peptide)
peptide: QPPICTIDVYMIMVK
notes: Synthetic peptide
B20 showed an IC50 in assay [34] of 250 nM. That is a sub-micromolar value.

B21: Her2/neu.943 (peptide)
peptide: QPPICTIDVYMIMVK
B21 registered an IC50 in assay [10] of 250 nM. This counts as sub-micromolar.

B22: Her2/neu.997.V2 (peptide)
peptide: AVPLDSTFYR
Turning to B22, the half-maximal inhibitory concentration (IC50) in assay [4] is over 110000 nM; in [35], 88 nM; in assay [5], 30000 nM; in assay [7], 73 nM.

B23: Her2/neU.997.V2K10 (peptide)
peptide: AVPLDSTFYK
Regarding B23, the IC50 in assay [4] turned out to be 550 nM; in assay [35], 33 nM; in assay [5], 1500 nM; in assay [6], 22300 nM; in assay [7], 229 nM.

B24: Her2/neu.883 (peptide)
peptide: KVPIKWMALESILRR
notes: Synthetic peptide
Take B24: the figures for the IC50 in [28] and in assay [30] were 2.3 nM and 3.4 nM, respectively.

B25: Her2/neu.765 (peptide)
peptide: KEILDEAYVMAGVGS
B25 came in with an IC50 in assay [23] of 6160 nM.

B26: Her2/neu.769 (peptide)
peptide: DEAYVMAGVGSPYVS
Consider B26, for which the IC50 in assay [9] was 100 nM; in assay [23] it was 196 nM.

B27: Her2/neu.711 (peptide)
peptide: QMRILKETELRKVKV
In assay [21], B27 displayed an IC50 of 34 nM.

B28: HER2/neu DR supermotif exemplary peptide KGPLPTDCCHEQCAA (position 228) (peptide)
peptide: KGPLPTDCCHEQCAA
notes: synthetic 15-mer; also called Her2/neu.228
Consider B28, for which the relative binding ratio in assay [3] was -0.0027 ratio (standard IC50 / test IC50).

As usually defined, the IC50 is the concentration that gives 50% inhibition. Low values mean higher potency, high ones lower potency.
